Test results published in patent US20220119450A1 (UNIVERSITY OF TARTU, published 2022).
No end group written: not given here. FAM = 5(6)-carboxyfluorescein; Ahx = NCCCCCC(=O)O

T1: recombinant His-tagged tenascin-C C domain (TNC-C)
T1 construct: 112 amino acids, expressed in E. coli from pET28a+ with N-terminal His-tag
T1 chain: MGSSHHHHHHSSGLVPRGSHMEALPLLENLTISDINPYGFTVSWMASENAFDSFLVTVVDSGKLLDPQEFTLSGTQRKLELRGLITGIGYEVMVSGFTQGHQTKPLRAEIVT

B1: PL5 peptide displayed on T7 phage (PPRRGLIKLKTSSNTKENSVVASLRP) (peptide)
peptide: PPRRGLIKLKTSSNTKENSVVASLRP
modifications: not fully specified (N-terminus); also: displayed on T7 phage capsid protein
notes: 26-aa peptide at the C-terminus of the T7 major capsid protein, arisen by a frameshift; also called PL5 phage
B2: synthetic FAM-labeled PL1 peptide (peptide)
peptide: {FAM-Ahx}-PPRRGLIKLKTS-OH
notes: Immobilized on ELISA plate and probed with His-tagged recombinant proteins; also called FAM-PL1
B3: PL3-functionalized silver nanoparticles (biotinylated PL3 peptide on NeutrAvidin-coated AgNPs) (peptide)
peptide: AGRGRLVR
modifications: not fully specified (N-terminus); also: biotinylated, site not given here, bound to NeutrAvidin on dye-labeled PEGylated silver nanoparticles
notes: Multivalent display on nanoparticles; also called PL3-AgNPs; AgNP-PL3

Assays:
[1] = target: T2, recombinant His-tagged fibronectin extra domain B (FN-EDB); assay: T7 peptide phage binding to recombinant Fn-EDB, fold over heptaglycine (G7) control phage
T2 construct: 112 amino acids, expressed in E. coli from pET28a+ with N-terminal His-tag; also called fibronectin EDB-domain
Description: The first panning round were performed on Fn-EDB immobilized on Costar 96-Well enzyme-linked immunosorbent assay (ELISA) plate (#3590, Corning Life Sciences, Tewksbury, Mass., USA). The plate was coated with 20 μg/ml recombinant Fn-EDB in 100 μl of PBS overnight at 4° C., followed by blocking with 1% bovine serum albumin (BSA) in PBS overnight at 4° C. The phage library solution (5×10⁸ pfu in 100 μl of PBS-BSA) were incubated overnight at 4° C., followed by 6 wash with PBS+BSA+0.1% Tween 20 to remove non-specifically bound background phages, and by phage rescue and amplification in E. coli strain BLT5403 (Novagen, EMD Biosciences, MA, USA) (Teesalu et al., 2012). The consequent rounds of selection were performed on Ni-NTA Magnetic Agarose Beads (QIAGEN, Hilden, Germany) coated with His-6X tagged Fn-EDB (30 μg/10 μl beads) at room temperature for 1 hour in 400 μl of PBS. The Fn-EDB immobilized beads were washed three times with PBS+BSA+0.1% NP40, followed by incubation of previous round phage (5×10⁸ pfu in 100 μl of PBS+BSA+0.1% NP40) for 1 hour at room temperature. The unbound/weakly bound phage removed by rinsing six times with PBS+BSA+0.1% NP40, binding phage were eluted with 1 ml of PBS+500 mM Imidazole+0.1% NP40. The recovered phage was tittered and amplified for a subsequent round of selection.
For cell-free binding studies using individually amplified phage clones; phage was incubated with Fn-EDB coated magnetic beads as described above. RPARPAR phage on NRP-1-coated beads was used as a positive control (Teesalu et al., 2009), Nucleolin (NCL) and Tenascin C—C domain (TNC-C) were used as negative control. Phage clones displaying heptaglycine peptide (GGGGGGG, G7 (SEQ ID NO:20)) or insert less phage clones were used as negative controls.

[2] = target: T1, recombinant His-tagged tenascin-C C …; assay: T7 peptide phage binding to recombinant TNC-C, fold over control heptaglycine phage
Description: Throughout our screens, the phage recovered during a round of selection was amplified using plate amplification protocol (Teesalu et al., 2012). The 1st and 4th round of biopanning were performed on TNC-C immobilized on Costar 96-Well ELISA plate (#3590, Corning Life Sciences, Tewksbury, Mass., USA). Briefly, the multiwell plate was coated with 20 μg/ml recombinant TNC-C in 100 μl of PBS overnight at 4° C., followed by blocking with 1% bovine serum albumin (BSA) in PBS overnight at 4° C. The phage library solution (5×10⁸ pfu in 100 μl of PBS-BSA) were incubated overnight at 4° C., followed by 6 washes with PBS+1% BSA+0.1% Tween 20 to remove non-specifically bound background phages, and by phage rescue and amplification in E. coli strain BLT5403 (Novagen, EMD Biosciences, MA, USA) (Lingasamy, P. et al., Biomaterials 119373. 2019). The subsequent rounds of selection were performed on Ni-NTA Magnetic Agarose Beads (QIAGEN, Hilden, Germany) coated with His-6X tagged TNC-C (30 μg/10 μl beads) at room temperature for 1 hour in 400 μl of PBS. The TNC-C immobilized beads were washed three times with PBS+1% BSA+0.1% NP40, followed by incubation of previous round phage (5×10⁸ pfu in 100 μl of PBS+1% BSA+0.1% NP40) to TNC-C coated beads for 1 hour at room temperature. The unbound/weakly bound (background) phages were removed by rinsing six times with PBS+1% BSA+0.1% NP40, and the bound phages were eluted with 1 ml of PBS+500 mM Imidazole+0.1% NP40.
The recovered phage was tittered and amplified for a subsequent round of selection. […] RPARPAR phage on NRP-1-coated beads was used as a positive control (Teesalu et al., 2009). Phage clones displaying heptaglycine peptide (GGGGGGG, G7 (SEQ ID NO:20)) or insert less phage clones were used as negative controls.

[3] = target: T1, recombinant His-tagged tenascin-C C …; assay: binding specificity, T7 peptide phage
Description: (§1) To identify bispecific peptides that interact with both TNC-C and FN-EDB, cross screens were performed on both targets. During the first round of selection, microtiter plates coated with 20 μg/ml recombinant purified TNC-C were blocked with PBS containing 1% bovine serum albumin (BSA), followed by incubation with 5×10⁸ pfu of phages in PBS at 4° C. overnight, by washes to remove background, and by phage rescue and amplification in BLT5403 strain of E. coli (Novagen, EMD Biosciences, MA, USA) (Teesalu et al., Methods Enzymol. 503:35-56 (2012)). The following rounds of biopanning were carried on Ni-NTA Magnetic Agarose Beads (QIAGEN, Hilden, Germany) coated with hexahistidine-tagged FN-EDB (3 μg/μl beads) at room temperature. After 5 rounds of selection, a set of random clones was sequenced, and individual peptide-phage clones and control (G7 peptide-displaying or insertless) phages were incubated with FN-EDB and TNC-C-coated magnetic beads. RPARPAR phage (SEQ ID NO:5) and His-tagged NRP-1 b1b2 domain were used as positive control (Teesalu et al., Proc. Natl. Acad. Sci. U.S.A 106:16157-62 (2009)). To address the specificity of the peptide phage binding to the FN-EDB and TNC-C, the protein-coated beads were pre-incubated with 20 μg/ml blocking rabbit polyclonal antibodies.
(§2) Immobilized FAM-PL1 was probed with recombinant His-tagged EDB and TNC-C (or control BSA), followed by sequential incubation with rabbit anti-His-tag primary antibody, secondary goat anti-rabbit HRP antibody and a chromogenic peroxidase reaction.

[4] = target: T2, recombinant His-tagged fibronectin …; assay: binding specificity, T7 peptide phage
Description: as §1, §2

[5] = target: T1, recombinant His-tagged tenascin-C C …; assay: ELISA: immobilized FAM-PL1 probed with His-tagged protein, anti-His-tag antibody, HRP
Description: (§3) The FAM-labeled peptides were coated on ELISA plates (Nunc Maxisorp, Thermo Fisher Scientific Inc., MA, USA), blocked with PBS containing 1% BSA, and incubated with recombinant proteins at 2 μg/well in PBS for 6 h. The protein was detected using an anti-His-tag antibody, followed by horseradish peroxidase-conjugated secondary antibody, chromogenic reaction, and measurement of absorbance at 450 nm with a microplate reader (Tecan Austria GmbH, Grödig, Austria).
as §2

[6] = target: T2, recombinant His-tagged fibronectin …; assay: as above
Description: as §3, §2

[7] = target: T3, NRP-1 on NRP-1-positive cells (U87-MG glioma, PPC1 prostate carcinoma; U87-MG xenograft tumors) (UniProt O14786 22-923, limits assumed); assay: nanoparticle binding and uptake on cultured cells, confocal imaging
T3 construct: whole, on cells; in xenografts mouse NRP-1 is also present
Description: U87-MG, PPC1, and M21 cells cultured on glass coverslips were incubated with CF555-labeled AgNPs at 37° C. for 1 hour, followed by washing with medium to remove background AgNPs. Etching solution freshly diluted from 0.2 M stock solutions of Na₂S₂O₃ and K₃Fe(CN)₆ to 10 mM working concentration in PBS was applied to cells for 3 minutes, followed by PBS washes. The cells on coverslips were fixed with −20° C. methanol for 1 minute. The cell membrane was visualized by staining with Alexa Fluor 488-labeled wheat germ agglutinin (WGA) at 1:1000 at RT for 1 h. Nuclei were stained with 4′,6-diamidino-2-phenylindole (DAPI, Molecular Probes) at 1 μg/mL. Fluoromount-G (Electron Microscopy Sciences) medium was used to mount the coverslips on microscope slides for confocal imaging.
Many cultured tumor cell lines overexpress NRP-1 and internalize peptides with active CendR motif. The uptake of CF555-labeled PL3-AgNPs in NRP-1-positive U87-MG glioma and PPC1 prostate carcinoma cells, and in NRP-1-negative M21 melanoma cells was investigated. The dye-labeled AgNP cores are well suited for fluorescence imaging as the AgNP increases the brightness of the surface-bound dye by about an order of magnitude by plasmonic enhancement. The AgNPs labeled with CF647 dye were coated with neutravidin (NA) and PEGylated, creating a stable colloid ready for coating with biotinylated peptides. […]

T3 sequence (O14786 22-923 limits assumed): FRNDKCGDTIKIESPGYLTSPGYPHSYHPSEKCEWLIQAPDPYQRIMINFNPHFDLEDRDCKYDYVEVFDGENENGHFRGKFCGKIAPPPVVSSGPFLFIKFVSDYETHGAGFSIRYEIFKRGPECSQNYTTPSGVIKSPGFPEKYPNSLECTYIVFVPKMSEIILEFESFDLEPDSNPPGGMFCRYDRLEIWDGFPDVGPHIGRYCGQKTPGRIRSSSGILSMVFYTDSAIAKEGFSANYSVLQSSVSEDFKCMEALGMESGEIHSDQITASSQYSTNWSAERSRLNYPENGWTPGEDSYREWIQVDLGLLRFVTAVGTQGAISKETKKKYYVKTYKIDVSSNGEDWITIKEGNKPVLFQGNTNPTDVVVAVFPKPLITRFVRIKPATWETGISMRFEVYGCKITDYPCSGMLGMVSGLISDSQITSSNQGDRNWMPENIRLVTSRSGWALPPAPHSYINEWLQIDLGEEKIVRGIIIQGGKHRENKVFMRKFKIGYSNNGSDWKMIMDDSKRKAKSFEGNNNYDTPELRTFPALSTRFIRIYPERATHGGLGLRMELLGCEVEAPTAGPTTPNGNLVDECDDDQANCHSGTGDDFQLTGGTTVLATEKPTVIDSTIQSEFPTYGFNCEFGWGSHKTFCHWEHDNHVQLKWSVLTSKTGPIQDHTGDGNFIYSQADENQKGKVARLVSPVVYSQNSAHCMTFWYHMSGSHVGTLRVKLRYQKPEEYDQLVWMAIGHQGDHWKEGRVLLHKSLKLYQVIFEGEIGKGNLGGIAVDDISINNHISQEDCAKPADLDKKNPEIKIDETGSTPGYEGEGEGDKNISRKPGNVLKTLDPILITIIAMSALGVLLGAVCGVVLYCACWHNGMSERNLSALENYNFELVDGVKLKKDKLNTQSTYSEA

Binder	Fold over G7 [1] [fold]	TNC-C binding (fold G7 control phage) [2] [fold]	also measured
GLGGRRIKLKTS [Fn-EDB-selected peptide phage clone 3, GLGGRRIKLKTS]	2060	–	–
CSRRGILRAKPAAALE [TNC-C-selected peptide phage clone 4, CSRRGILRAKPAAALE]	–	4890	–
GTRRRSRINLAAALE [Fn-EDB-selected peptide phage clone 10, GTRRRSRINLAAALE]	1560	–	–
B1	–	–	binding result [3]: binds; binding result [4]: binds
AGRGRLVRAKLAAALE [TNC-C-selected peptide phage clone 5, AGRGRLVRAKLAAALE]	–	5780	–
VHERTRI [Fn-EDB-selected peptide phage clone 24, VHERTRI]	1	–	–
VGRVRFSRKLAAALE [TNC-C-selected peptide phage clone 30, VGRVRFSRKLAAALE]	–	3700	–
TKRKGKG [Fn-EDB-selected peptide phage clone 2, TKRKGKG]	58	–	–
B2	–	–	binding result [5]: binds; binding result [6]: binds
RRLVRVA [TNC-C-selected peptide phage clone 35, RRLVRVA]	–	1220	–
TSKQNSR (also called phage PL2 peptide) [PL2 peptide displayed on T7 phage (TSKQNSR)]	89	–	–
CRGVLRRAKLAAALE [TNC-C-selected peptide phage clone 2, CRGVLRRAKLAAALE]	–	5960	–
RGRLRRVE [TNC-C-selected peptide phage clone 44 (Seq ID No. 37)]	–	886	–
B3	–	–	binding result [7]: binds
KVKKRGA [Fn-EDB-selected peptide phage clone 17, KVKKRGA]	44	–	–
GRRGRVIKLKTSEPPQ [Fn-EDB-selected peptide phage clone 4, GRRGRVIKLKTSEPPQ]	1180	–	–
CQRMGVVGAKLAAALE [TNC-C-selected peptide phage clone 36, CQRMGVVGAKLAAALE]	–	3930	–
RGRLVRA [TNC-C-selected peptide phage clone 45, RGRLVRA]	–	737	–
RESRRGRVKLAAALE [Fn-EDB-selected peptide phage clone 33, RESRRGRVKLAAALE]	209	–	–
GRLTRVR [TNC-C-selected peptide phage clone 46, GRLTRVR]	–	115	–
AGVGRLRRAKLAAALE [TNC-C-selected peptide phage clone 1, AGVGRLRRAKLAAALE]	–	3260	–
